Experimental data from patent US10012655B2, “Method for quantitating total HMGB1 protein in biological samples” (INSTITUT PASTEUR, priority 2008, dated 2018).

Tested on: R5-HIV-1Ba-L
Assay: HIV-1 replication in infected iDCs, p24 ELISA in culture supernatant
Type: cell-based
Details: 1 μg/ml, 3 days
Method: FIGS. 6 (a), (b) and (c). Exogenous rh-HMGB1 triggers HIV-1 and HIV-2 replication in iDC. (a) HIV-1-infected iDC were cultured alone or in the presence of aNK cells for 3 days. Rh-HMGB1 (1 μg/ml) was added in some cultures. HIV replication was measured by p24 quantification in culture supernatant (b) HIV1-infected iDC were cultured alone or in the presence of aNK cells for 3 days. Blocking anti-HMGB1 antibodies (10 μg/ml) or glycyrrhizin (10 μg/ml) were added at culture initiation. HIV replication was measured by p24 quantification in culture supernatant. The mean±sd of three independent experiments is shown. Statistical comparisons were made with the non parametric Mann-Whitney test. * p<0.05; (c) HIV-2-infected iDC were cultured alone or in the presence of aNK cells for 3 days. Rh-HMGB1 (1 μg/ml) was added in some cultures. HIV replication was measured by p24 quantification in culture supernatant.
Virus stock preparation was prepared by amplification of R5-HIV-1Ba-L on MDM from healthy donors. Viral stock was then clarified by centrifugation prior to determination of HIV1 p24 concentration. iDCs were plated in 96-well culture plates at 200,000 cells/well and incubated for 3 hours at 37° C. in a 5% CO2 atmosphere with R5-HIV-1BAL at various concentrations (0.001 to 10 ng p24/ml). Cells were harvested, washed four times with media containing 10% FCS and, when indicated, rNK or aNK cells were added at a NK:DC ratio of 1:5, unless otherwise indicated. NK-DC cocultures lasted 24 h before analysis of the maturation stage of DCs and/or quantification of viral production. In some experiments (FIG. 6), HIV-1 infected iDCs were incubated alone or with aNK cells for 3 days, in the presence of rh-HMGB1 (1 μg/ml) (R&DSystems), and in some cultures in the presence of rabbit antiHMGB1 Abs (10 μg/ml) (Abcam, Cambridge, UK) or Glycyrrhizin (10 μg/ml).
The concentration of HIV-1 in the supernatant of infected cell cultures was determined by measuring the amount of p24 protein by ELISA (Ingen, Belgium). DNA from cells was extracted using the GIAamp DNA Blood Mini Kit (Qiagen, Basel, Switzerland) and quantified HIV-1 proviral load by RT-PCR as described previously54. The frequency of HIV-1-infected cells was determined by flow cytometry to detect intracellular p24 molecule. Cells were surface stained with antibodies specific for CD40 (BD Biosciences, San Jose, Calif.) to target DC and intracellular stained with p24-specific antibodies (Coulter). Stained cells were fixed in 1% PFA, immediately acquired on a FACScalibur (Becton Dickinson) and analyzed with FlowJo software. In some experiments infected DCs were imaged, after immunofluorescence, by laser scanning confocal microscopy.

B1: rh-HMGB1: recombinant human HMGB1 protein (R&D Systems) (protein, UniProt P09429 1-215, looked up)
High mobility group protein B1: MGKGDPKKPRGKMSSYAFFVQTCREEHKKKHPDASVNFSEFSKKCSERWKTMSAKEKGKFEDMAKADKARYEREMKTYIPPKGETKKKFKDPNAPKRPPSAFFLFCSEYRPKIKGEHPGLSIGDVAKKLGEMWNNTAADDKQPYEKKAAKLKEKYEKDIAAYRAKGKPDAAKKGVVKAEKSKKKKEEEEDEEDEEDEEEEEDEEDEDEEEDDDDE
B1 was tested, and the “p24 production in culture supernatants” value (HIV-1-infected iDC cocultured with aNK cells) was “significant stimulatory effect on p24 production” and the “production of p24 in culture supernatants” value (HIV-1-infected iDC cultured alone) was “enhancing dramatically the production of p24”.
